The subject of this series is Escherichia coli TOP10. The series is described as follows: shrunken log2 fold change of peptide-encoding DNA abundance (4.5 h post-induction vs induction); higher = less antimicrobial activity (less host growth inhibition). The note with it: time post-induction: 4.5 h; library: site-saturation at positions 5, 18, 19, 20.

The results in this text go back to the supplement of paper PMC9112550, “Optimization of the antimicrobial peptide Bac7 by deep mutational scanning” (BMC Biology, 2022).
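Further: peptides expressed intracellularly from a pBAD plasmid library in pooled LB shake-flask culture, induced with 0.3% L-arabinose, DNA abundance read by NGS, three biological replicates, DESeq2 with apeglm shrinkage.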

For RRIRDRPPRLPRPRPRPLNEPRP, the “shrunken log2 fold change” value is -0.188.
Then RRIRHRPPRLPRPRPRPCICPRP, with -0.347; and RRIRIRPPRLPRPRPRPHDEPRP, with -0.463; and RRIRQRPPRLPRPRPRPFFRPRP, with -0.236.
Then RRIRLRPPRLPRPRPRPELGPRP, with 0.0397; and RRIRARPPRLPRPRPRPHWGPRP, with 0.119; and RRIRNRPPRLPRPRPRPPFKPRP, with -0.325.
Take RRIRQRPPRLPRPRPRPLQYPRP: the “shrunken log2 fold change” value was -0.0199.
As for RRIRRRPPRLPRPRPRPLVSPRP, the figure is 0.153; as for RRIRIRPPRLPRPRPRPFTNPRP, -0.16; as for RRIRFRPPRLPRPRPRPKTIPRP, -0.223.
As to RRIRPRPPRLPRPRPRPAKVPRP, the “shrunken log2 fold change” value is 0.045.
In the case of RRIRIRPPRLPRPRPRPKHGPRP, the “shrunken log2 fold change” value was -0.113.
As for RRIRWRPPRLPRPRPRPNFNPRP, the “shrunken log2 fold change” value was -0.198.
As for RRIRLRPPRLPRPRPRPPVLPRP, the figure is 0.0296; as for RRIRGRPPRLPRPRPRPSKKPRP, 0.609.
As to RRIRHRPPRLPRPRPRPRMCPRP, the “shrunken log2 fold change” value was -0.0257.
RRIRPRPPRLPRPRPRPMDMPRP: the “shrunken log2 fold change” value is -0.784.
Consider RRIRNRPPRLPRPRPRPTAHPRP, for which the “shrunken log2 fold change” value was found to be 0.0105.
In the case of RRIRARPPRLPRPRPRPHQQPRP, the “shrunken log2 fold change” value worked out at 0.33.
As for RRIRARPPRLPRPRPRPITQPRP, the figure is -0.0161; as for RRIRRRPPRLPRPRPRPVTMPRP, 0.0683.
Regarding RRIRMRPPRLPRPRPRPGIWPRP, the “shrunken log2 fold change” value worked out at 0.379.
Then RRIRFRPPRLPRPRPRPHQMPRP, with -0.037; and RRIRTRPPRLPRPRPRPCHRPRP, with -0.000687; and RRIRWRPPRLPRPRPRPDGHPRP, with 0.0237.
On to RRIRDRPPRLPRPRPRPMMCPRP, for which the “shrunken log2 fold change” value was -0.131.
As for RRIRCRPPRLPRPRPRPTFGPRP, the figure is -0.213; as for RRIRTRPPRLPRPRPRPKFQPRP, 0.114; as for RRIRQRPPRLPRPRPRPVWVPRP, 0.0799.
As for RRIRIRPPRLPRPRPRPEIKPRP, the figure is -0.14; as for RRIRDRPPRLPRPRPRPNMLPRP, 0.0937.
On to RRIRARPPRLPRPRPRPWDCPRP, for which the “shrunken log2 fold change” value amounted to 0.0143.
As to RRIRLRPPRLPRPRPRPCMRPRP, the “shrunken log2 fold change” value came to 0.188.
As to RRIRQRPPRLPRPRPRPAPNPRP, the “shrunken log2 fold change” value stood at 0.561.
Then RRIRRRPPRLPRPRPRPPASPRP, with 0.615; and RRIRVRPPRLPRPRPRPEEVPRP, with 0.0207; and RRIRLRPPRLPRPRPRPGIDPRP, with -0.0208.
Then RRIRERPPRLPRPRPRPVILPRP, with -0.388; and RRIRKRPPRLPRPRPRPCIPPRP, with -0.0433; and RRIRDRPPRLPRPRPRPHDPPRP, with -0.147.
As for RRIRQRPPRLPRPRPRPEINPRP, the figure is -0.15; as for RRIRWRPPRLPRPRPRPMIAPRP, 0.00921.
RRIRRRPPRLPRPRPRPFSPPRP: the “shrunken log2 fold change” value is -0.173.
As for RRIRNRPPRLPRPRPRPRQFPRP, the figure is 0.0733; as for RRIRLRPPRLPRPRPRPGNIPRP, -0.0276; as for RRIRNRPPRLPRPRPRPEVVPRP, -0.252.
For RRIRVRPPRLPRPRPRPDMYPRP, the “shrunken log2 fold change” value was -0.0946.
On to RRIRARPPRLPRPRPRPVMQPRP, for which the “shrunken log2 fold change” value was 0.305.
As for RRIRTRPPRLPRPRPRPRDQPRP, the figure is 0.224; as for RRIRDRPPRLPRPRPRPFHIPRP, -0.254; as for RRIRKRPPRLPRPRPRPAARPRP, 0.742.
As for RRIRRRPPRLPRPRPRPGCLPRP, the figure is 0.702; as for RRIRYRPPRLPRPRPRPTFVPRP, -0.0102.
As for RRIRMRPPRLPRPRPRPCPAPRP, the figure is 0.574; as for RRIRGRPPRLPRPRPRPKNQPRP, 0.551; as for RRIRPRPPRLPRPRPRPLNAPRP, -0.0965.
As to RRIRFRPPRLPRPRPRPSWNPRP, the “shrunken log2 fold change” value was -0.575.
In the case of RRIRARPPRLPRPRPRPRATPRP, the “shrunken log2 fold change” value was found to be 0.581.
Take RRIRRRPPRLPRPRPRPNGYPRP: the “shrunken log2 fold change” value was found to be 0.17.
As for RRIRGRPPRLPRPRPRPNCNPRP, the “shrunken log2 fold change” value is 0.199.
Regarding RRIRRRPPRLPRPRPRPNREPRP, the “shrunken log2 fold change” value turned out to be 0.232.
Then RRIRHRPPRLPRPRPRPDLVPRP, with -0.104; and RRIRDRPPRLPRPRPRPQMQPRP, with 0.135.
As for RRIRGRPPRLPRPRPRPYELPRP, the figure is -0.036; as for RRIRGRPPRLPRPRPRPQRRPRP, 0.565; as for RRIRDRPPRLPRPRPRPYPLPRP, 0.215.
Then RRIRVRPPRLPRPRPRPEIRPRP, with 0.173.
Regarding RRIRLRPPRLPRPRPRPPTHPRP, the “shrunken log2 fold change” value is 0.147.
Then RRIRIRPPRLPRPRPRPTWLPRP, with -0.124.
Then RRIRVRPPRLPRPRPRPHMDPRP, with -0.449.
As for RRIRPRPPRLPRPRPRPHNNPRP, the figure is -0.692; as for RRIRLRPPRLPRPRPRPFSCPRP, 0.0222; as for RRIRCRPPRLPRPRPRPYLMPRP, -0.916.
For RRIRPRPPRLPRPRPRPMIEPRP, the “shrunken log2 fold change” value was -0.0882.
As for RRIRPRPPRLPRPRPRPSDRPRP, the figure is -0.00705.
As for RRIRPRPPRLPRPRPRPMHSPRP, the figure is 0.355; as for RRIRTRPPRLPRPRPRPMHGPRP, -0.0017; as for RRIRHRPPRLPRPRPRPLFSPRP, -0.888.
In the case of RRIRFRPPRLPRPRPRPLHPPRP, the “shrunken log2 fold change” value was -0.0197.
Regarding RRIRERPPRLPRPRPRPFVDPRP, the “shrunken log2 fold change” value was -0.0208.
Turning to RRIRRRPPRLPRPRPRPWIIPRP, the “shrunken log2 fold change” value was -0.021.
In the case of RRIRYRPPRLPRPRPRPNHEPRP, the “shrunken log2 fold change” value was -0.657.
As for RRIRGRPPRLPRPRPRPAKAPRP, the figure is 0.233.
Regarding RRIRPRPPRLPRPRPRPNNYPRP, the “shrunken log2 fold change” value is -0.0307.
Then RRIRQRPPRLPRPRPRPNPAPRP, with 0.17; and RRIRTRPPRLPRPRPRPHIPPRP, with -0.769; and RRIRQRPPRLPRPRPRPYMKPRP, with -0.521.
On to RRIRRRPPRLPRPRPRPATFPRP, for which the “shrunken log2 fold change” value is 0.0785.
As for RRIRGRPPRLPRPRPRPFIVPRP, the figure is -0.00433; as for RRIRSRPPRLPRPRPRPDSTPRP, -0.481; as for RRIRRRPPRLPRPRPRPQWPPRP, 0.00418.
Then RRIRWRPPRLPRPRPRPTVNPRP, with 0.0302; and RRIRDRPPRLPRPRPRPRSHPRP, with -0.0765; and RRIRERPPRLPRPRPRPMNGPRP, with -0.0134.
As for RRIRCRPPRLPRPRPRPVIYPRP, the figure is -0.493.
On to RRIRTRPPRLPRPRPRPICGPRP, for which the “shrunken log2 fold change” value is 0.0749.
Then RRIRCRPPRLPRPRPRPQAVPRP, with -0.154.
Take RRIRRRPPRLPRPRPRPDCMPRP: the “shrunken log2 fold change” value was 0.32.
Then RRIRNRPPRLPRPRPRPNANPRP, with -0.199; and RRIRPRPPRLPRPRPRPVMMPRP, with 3.4; and RRIRARPPRLPRPRPRPQSLPRP, with 0.026.
Regarding RRIRIRPPRLPRPRPRPYVTPRP, the “shrunken log2 fold change” value was -0.526.
Then RRIRNRPPRLPRPRPRPDGNPRP, with 0.102; and RRIRSRPPRLPRPRPRPYNKPRP, with -1.01.
As for RRIRPRPPRLPRPRPRPDDDPRP, the figure is -0.175; as for RRIRVRPPRLPRPRPRPFQGPRP, -0.0641; as for RRIRKRPPRLPRPRPRPDSKPRP, -0.0709.
As for RRIRIRPPRLPRPRPRPDAMPRP, the figure is -0.112; as for RRIRGRPPRLPRPRPRPPDYPRP, 0.135; as for RRIRWRPPRLPRPRPRPVAKPRP, 0.404.
Regarding RRIRPRPPRLPRPRPRPSSDPRP, the “shrunken log2 fold change” value was -0.317.
Regarding RRIRCRPPRLPRPRPRPDMVPRP, the “shrunken log2 fold change” value is -0.184.
For the sequence RRIRIRPPRLPRPRPRPQFDPRP, the “shrunken log2 fold change” value was -0.505.
Then RRIRNRPPRLPRPRPRPKKVPRP, with -0.0914.
Consider RRIRQRPPRLPRPRPRPKWFPRP, for which the “shrunken log2 fold change” value was -0.107.
Take RRIRPRPPRLPRPRPRPIVSPRP: the “shrunken log2 fold change” value is -0.117.
Consider RRIRRRPPRLPRPRPRPLWSPRP, for which the “shrunken log2 fold change” value amounted to 0.136.
RRIRNRPPRLPRPRPRPQQPPRP: the “shrunken log2 fold change” value is 0.0468.
As for RRIRERPPRLPRPRPRPMFGPRP, the figure is 0.0215.
Then RRIRMRPPRLPRPRPRPRFEPRP, with 0.36; and RRIRHRPPRLPRPRPRPINAPRP, with 0.0354.
For RRIRQRPPRLPRPRPRPQFRPRP, the “shrunken log2 fold change” value is -0.0194.
For RRIRCRPPRLPRPRPRPCRQPRP, the “shrunken log2 fold change” value was found to be 0.0584.
As for RRIRQRPPRLPRPRPRPNRAPRP, the figure is 0.025.
